The text below walks through data of the supplement of paper PMC10567573.

B1: ZBED3 (parent)
chain: QARLRDVSRREGALGWAPAAPPPL
B2: SMG5 (parent)
chain: TRKLSPGKKRCKDIKRLLVNFMYL
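Note: lentivirally expressed fusions sorted by FACS into six bins by GFP to DsRed ratio, PSI derived from sequencing read proportions per bin multiplied by bin number.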

Variants of B1 are the subject of one data set. Kind of data set: protein stability index of a GFP-peptide fusion (GPS, HEK-293T) (PSI 1-6); higher = more stable. Particulars: c terminus: a fixed tail appended.
Take QARLRDVSRREGALGWAPAAPPWL: the protein stability index was 2.08. As for QARLRDVSRREGALGWAPAAPPYL, the protein stability index amounted to 2.06.

A further data set covers variants of B2. The description is as above. As to conditions: c terminus: a fixed tail appended.
In the case of TRKLSPGKKSCKDIKRLLVNFMYL, the protein stability index came to 2.03. On to TRKLSPGKKECKDIKRLLVNFMYL, for which the protein stability index stood at 2.67. Turning to TRKLSPGKKYCKDIKRLLVNFMYL, the protein stability index worked out at 3.14. Still for that read-out and setting: then TRKLSPGKKPCKDIKRLLVNFMYL, with 3.4; and TRKLSPGKKCCKDIKRLLVNFMYL, with 2.23; and TRKLSPGKKNCKDIKRLLVNFMYL, with 3.09.

Turning to TRKLSPGKKDCKDIKRLLVNFMYL, the protein stability index worked out at 2.02.

As to TRKLSPGKKHCKDIKRLLVNFMYL, the protein stability index was 2.2. With TRKLSPGKKKCKDIKRLLVNFMYL, the protein stability index turned out to be 2.07. Same read-out and setting: then TRKLSPGKKQCKDIKRLLVNFMYL, with 3.

For the variant TRKLSPGKKLCKDIKRLLVNFMYL, the protein stability index was 3.06. On the same count and under the same terms, then TRKLSPGKKGCKDIKRLLVNFMYL, with 3.25; and TRKLSPGKKRVKDIKRLLVNFMYL, with 1.4. Same read-out and setting: as for TRKLSPGKKREKDIKRLLVNFMYL, the figure is 2.58; as for TRKLSPGKKRFKDIKRLLVNFMYL, 3.81; as for TRKLSPGKKRIKDIKRLLVNFMYL, 4.05. In the case of TRKLSPGKKRTKDIKRLLVNFMYL, the protein stability index was found to be 1.59.

For TRKLSPGKKRSKDIKRLLVNFMYL, the protein stability index was found to be 1.4. In the case of TRKLSPGKKRAKDIKRLLVNFMYL, the protein stability index came to 3.02.

For the variant TRKLSPGKKRKKDIKRLLVNFMYL, the protein stability index was determined as 2.

As for TRKLSPGKKRDKDIKRLLVNFMYL, the protein stability index was found to be 1.79. Turning to TRKLSPGKKRLKDIKRLLVNFMYL, the protein stability index was 2.46. The same measure, in the same setting: as for TRKLSPGKKRQKDIKRLLVNFMYL, the figure is 1.39; as for TRKLSPGKKRGKDIKRLLVNFMYL, 1.42.

As for TRKLSPGKKRHKDIKRLLVNFMYL, the protein stability index was 1.58. Still for that read-out and setting: as for TRKLSPGKKRPKDIKRLLVNFMYL, the figure is 2.26. Same read-out and setting: as for TRKLSPGKKRWKDIKRLLVNFMYL, the figure is 3.27. For the variant TRKLSPGKKRMKDIKRLLVNFMYL, the protein stability index is 1.93. As for TRKLSPGKKRYKDIKRLLVNFMYL, the protein stability index turned out to be 1.91. Take QRKLSPGKKRCKDIKRLLVNFMYL: the protein stability index worked out at 2.7. Same read-out and setting: then GRKLSPGKKRCKDIKRLLVNFMYL, with 1.92; and ARKLSPGKKRCKDIKRLLVNFMYL, with 1.51; and MRKLSPGKKRCKDIKRLLVNFMYL, with 2.88. On to IRKLSPGKKRCKDIKRLLVNFMYL, for which the protein stability index is 1.95. Take WRKLSPGKKRCKDIKRLLVNFMYL: the protein stability index was found to be 1.45.

As for CRKLSPGKKRCKDIKRLLVNFMYL, the protein stability index came out at 2.22. The same measure, in the same setting: as for VRKLSPGKKRCKDIKRLLVNFMYL, the figure is 3.92.

As for ERKLSPGKKRCKDIKRLLVNFMYL, the protein stability index came out at 2.17. With SRKLSPGKKRCKDIKRLLVNFMYL, the protein stability index was found to be 3.96.

HRKLSPGKKRCKDIKRLLVNFMYL: the protein stability index stood at 3.62. Same read-out and setting: as for RRKLSPGKKRCKDIKRLLVNFMYL, the figure is 4.28. Turning to TRKLSTGKKRCKDIKRLLVNFMYL, the protein stability index worked out at 2.59. On the same count and under the same terms, then TRKLSYGKKRCKDIKRLLVNFMYL, with 3.31; and TRKLSHGKKRCKDIKRLLVNFMYL, with 2.4; and TRKLSGGKKRCKDIKRLLVNFMYL, with 2.69. The same measure, in the same setting: as for TRKLSQGKKRCKDIKRLLVNFMYL, the figure is 3.24; as for TRKLSLGKKRCKDIKRLLVNFMYL, 2.45; as for TRKLSSGKKRCKDIKRLLVNFMYL, 2.1.

TRKLSVGKKRCKDIKRLLVNFMYL: the protein stability index came to 3.45. Same read-out and setting: then TRKLSNGKKRCKDIKRLLVNFMYL, with 1.9.

In the case of TRKLSDGKKRCKDIKRLLVNFMYL, the protein stability index amounted to 2.55. The same measure, in the same setting: as for TRKLSPGKKRCLDIKRLLVNFMYL, the figure is 3.13; as for TRKLSPGKKRCEDIKRLLVNFMYL, 4.79. Still for that read-out and setting: as for TRKLSPGKKRCYDIKRLLVNFMYL, the figure is 2.96; as for TRKLSPGKKRCPDIKRLLVNFMYL, 2.41; as for TRKLSPGKKRCSDIKRLLVNFMYL, 2.06. As to TRKLSPGKKRCGDIKRLLVNFMYL, the protein stability index was determined as 2.95. On to TRKLSPGKKRCTDIKRLLVNFMYL, for which the protein stability index came out at 2.96. For TRKLSPGKKRCQDIKRLLVNFMYL, the protein stability index was 2.46. As for TRKLSPGKKRCRDIKRLLVNFMYL, the protein stability index was 2.47.

Turning to TRKLSPGKKRCFDIKRLLVNFMYL, the protein stability index was 2.73.

Regarding TRKLSPGKKRCDDIKRLLVNFMYL, the protein stability index turned out to be 1.41. Take TRKLSPGKKRCWDIKRLLVNFMYL: the protein stability index amounted to 3.15.

Regarding TRKLSPGKKRCADIKRLLVNFMYL, the protein stability index came out at 3.77. For the variant TRKLSPGKKRCVDIKRLLVNFMYL, the protein stability index was found to be 2.02. On the same count and under the same terms, then TRKLSPGKKRCMDIKRLLVNFMYL, with 1.74; and TRKLSPGKKRCCDIKRLLVNFMYL, with 3.37. On the same count and under the same terms, as for TRKLSPGKKRCNDIKRLLVNFMYL, the figure is 2.14; as for TRKLSPGKLRCKDIKRLLVNFMYL, 3.19; as for TRKLSPGKERCKDIKRLLVNFMYL, 2.32.

Take TRKLSPGKGRCKDIKRLLVNFMYL: the protein stability index was found to be 1.4. Same read-out and setting: as for TRKLSPGKVRCKDIKRLLVNFMYL, the figure is 2.04; as for TRKLSPGKDRCKDIKRLLVNFMYL, 3.59; as for TRKLSPGKYRCKDIKRLLVNFMYL, 2.15.

As to TRKLSPGKCRCKDIKRLLVNFMYL, the protein stability index turned out to be 2.14.

TRKLSPGKPRCKDIKRLLVNFMYL: the protein stability index was found to be 2.4. Still for that read-out and setting: as for TRKLSPGKTRCKDIKRLLVNFMYL, the figure is 2.64; as for TRKLSPGKMRCKDIKRLLVNFMYL, 2.31. Still for that read-out and setting: as for TRKLSPGKNRCKDIKRLLVNFMYL, the figure is 4.29; as for TRKLSPGKFRCKDIKRLLVNFMYL, 3. As for TRKLSPGKSRCKDIKRLLVNFMYL, the protein stability index amounted to 2.86. Take TRKLSPGKKRCKMIKRLLVNFMYL: the protein stability index is 2.54. Still for that read-out and setting: as for TRKLSPGKKRCKVIKRLLVNFMYL, the figure is 3.74. Still for that read-out and setting: as for TRKLSPGKKRCKTIKRLLVNFMYL, the figure is 3.66; as for TRKLSPGKKRCKQIKRLLVNFMYL, 3.52.

For the variant TRKLSPGKKRCKKIKRLLVNFMYL, the protein stability index amounted to 2.07.

Regarding TRKLSPGKKRCKNIKRLLVNFMYL, the protein stability index was found to be 1.5. In the case of TRKLSPGKKRCKSIKRLLVNFMYL, the protein stability index is 2.42. Still for that read-out and setting: as for TRKLSPGKKRCKAIKRLLVNFMYL, the figure is 2.75; as for TRKLSPGKKRCKLIKRLLVNFMYL, 2.93. On the same count and under the same terms, as for TRKLSPGKKRCKYIKRLLVNFMYL, the figure is 1.79; as for TRKLSPGKKRCKPIKRLLVNFMYL, 2.62.
